Test results taken from patent publication US20260209362A1 (VIB VZW, published 2026).

T1: biotinylated recombinant human IL-12Rβ2 (human, UniProt Q99665 24-622, random biotinylated)
T1 construct: Recombinant protein produced in-house, biotinylated; also called hIL-12RB2; human IL-12RB2
T1 sequence: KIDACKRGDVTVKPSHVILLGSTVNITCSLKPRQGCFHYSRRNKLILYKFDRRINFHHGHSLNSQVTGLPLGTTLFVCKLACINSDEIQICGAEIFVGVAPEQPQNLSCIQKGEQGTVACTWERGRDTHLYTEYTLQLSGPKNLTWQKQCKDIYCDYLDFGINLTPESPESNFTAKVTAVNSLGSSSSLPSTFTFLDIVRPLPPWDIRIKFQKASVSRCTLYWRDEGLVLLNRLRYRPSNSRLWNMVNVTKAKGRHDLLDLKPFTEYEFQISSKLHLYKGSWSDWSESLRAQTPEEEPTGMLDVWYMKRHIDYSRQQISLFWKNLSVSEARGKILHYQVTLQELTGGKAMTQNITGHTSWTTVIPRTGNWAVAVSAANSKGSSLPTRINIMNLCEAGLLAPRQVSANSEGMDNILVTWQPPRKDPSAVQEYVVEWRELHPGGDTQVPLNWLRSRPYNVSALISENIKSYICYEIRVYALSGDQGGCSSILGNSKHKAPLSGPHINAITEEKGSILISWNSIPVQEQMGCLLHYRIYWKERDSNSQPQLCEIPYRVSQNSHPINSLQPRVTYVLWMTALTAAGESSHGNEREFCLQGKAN

T2: biotinylated recombinant mouse IL-12Rβ2 (mouse, UniProt P97378 24-637, random biotinylated)
T2 construct: Recombinant protein produced in-house, biotinylated; also called mIL-12RB2; mouse IL-12RB2
T2 sequence: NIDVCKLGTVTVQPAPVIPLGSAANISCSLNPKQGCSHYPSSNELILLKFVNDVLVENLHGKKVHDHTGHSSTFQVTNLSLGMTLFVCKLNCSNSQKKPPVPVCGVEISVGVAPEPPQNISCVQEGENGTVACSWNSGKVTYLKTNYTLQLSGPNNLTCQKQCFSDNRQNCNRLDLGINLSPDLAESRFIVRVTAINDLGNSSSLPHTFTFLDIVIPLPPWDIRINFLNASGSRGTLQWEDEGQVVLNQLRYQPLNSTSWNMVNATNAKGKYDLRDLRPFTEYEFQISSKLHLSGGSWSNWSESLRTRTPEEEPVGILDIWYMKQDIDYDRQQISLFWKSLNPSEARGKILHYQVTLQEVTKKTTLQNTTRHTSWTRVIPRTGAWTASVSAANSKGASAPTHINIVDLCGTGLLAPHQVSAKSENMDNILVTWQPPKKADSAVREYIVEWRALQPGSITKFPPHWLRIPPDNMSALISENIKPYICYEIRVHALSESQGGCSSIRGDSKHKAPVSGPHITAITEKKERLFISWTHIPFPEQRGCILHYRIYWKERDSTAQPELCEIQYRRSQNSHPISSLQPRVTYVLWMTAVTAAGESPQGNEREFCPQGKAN


Assays:
[1] = target: T1, biotinylated recombinant human IL-12Rβ2; experiment: ELISA, periplasmic extract on biotinylated hIL-12Rβ2, signal over control wells
[2] = target: T2, biotinylated recombinant mouse IL-12Rβ2; experiment: ELISA, periplasmic extract on biotinylated mIL-12Rβ2, signal over control wells

| Binder | ELISA binding hIL-12RB2/control [1] | ELISA binding mIL-12RB2/control [2] |
| --- | --- | --- |
| anti-IL-12Rβ2 VHH clone 20498 (VHH, not shown: small tags and cut ends, tested as periplasmic extract; also called 2CAM73) VHH: QVQLQESGGGLVQAGGSLRLSCASSGRTFSSRTVGWFRQAPGKERYFVAAISRDTAYTDYADSVKGRFTISRGNAKNTVYLQMNSLNPEDTAVYYCAASHIYSGSHYISARSSDYMYWGQGTQVTVSS | 0.994 ratio | 6.62 ratio |
| anti-IL-12Rβ2 VHH clone 20444 (VHH, not shown: small tags and cut ends, tested as periplasmic extract; also called 2CRM18) VHH: QVQLQESGGGLVQAGGSLRLSCTASGSIFAIDDMYWYRQAPGKQREFVAYITATNSANYLDSVNGRFTISRDNAKNSVYLQMNSLKPEDTAVYYCNAKQIVGFQIDEYWGQGTQVTVSS | 0.985 ratio | 4.68 ratio |
| anti-IL-12Rβ2 VHH clone 20446 (VHH, not shown: small tags and cut ends, tested as periplasmic extract; also called 2CRM32) VHH: QVQLQESGGGLVQPGGSLRLSCTASGSIFASDDMYWYRQAPGKQREFVAYITATNSANYLDSVNGRFTISRDNAKNSVYLQMNSLKPEDTAVYYCNAKQIVGFQIDEYWGQGTQVTVSS | 1.01 ratio | 12 ratio |
| anti-IL-12Rβ2 VHH clone 20442 (VHH, not shown: small tags and cut ends, tested as periplasmic extract; also called 2CRM12) VHH: QVQLQESGGGLVQPGGSLRLSCTASGSIFAIDDMYWYRQAPGKQREFVAYITATNSANYLDSVNGRFTISRDNAKNSVYLQMNSLKPEDTAVYYCNAKQIVGFQIDEYWGQGTQVTVSS | 0.993 ratio | 6.67 ratio |
| anti-IL-12Rβ2 VHH clone 20478 (VHH, not shown: small tags and cut ends, tested as periplasmic extract; also called 2CAM30) VHH: QVQLQESGGGLVQAGGSLTLSCAASGMPISFNVLGWFRQIPGKERDFVAAISRDARITDYADSVKGRFTISRDNVKNTVYLQMNSLNPEDTAVYFCAAAYTYSGSHYVTARSSDYHSWGQGTQVTVSS | 1.02 ratio | 8.78 ratio |
| anti-IL-12Rβ2 VHH clone 20539 (VHH, not shown: small tags and cut ends, tested as periplasmic extract; also called 2CAMS87) VHH: QVQLQESGGGLVQAGGSLRLSCAASGRTFSSYGMGWFRQAPGKEREFVAAISRGARNTDYADSVKGRFTISRDNAKNTAFLQMNSLNPEDTAVYFCAAAYTYSGSHYVTARSSDYHTWGQGTQVTVSS | 1.03 ratio | 4.89 ratio |

Continued, values first:

| ELISA binding hIL-12RB2/control [1] | ELISA binding mIL-12RB2/control [2] | Binder |
| --- | --- | --- |
| 0.919 ratio | 9.31 ratio | anti-IL-12Rβ2 VHH clone 20544 (VHH, not shown: small tags and cut ends, tested as periplasmic extract; also called 3CAMS19) VHH: QVQLQESGGGLVQAGGPLRLSCAASGRTFSSYGMGWFRQAPGKERDFVAAISRDARITDYADSVKGRFTISRDNVKNTVYLQMNSLNPEDTAVYFCAAAYTYSGSHYVTARSSDYHSWGQGTQVTVSS |
| 0.915 ratio | 5.66 ratio | anti-IL-12Rβ2 VHH clone 20541 (VHH, not shown: small tags and cut ends, tested as periplasmic extract; also called 3CAMS9) VHH: QVQLQESGGGLVQAGGSLRLSCAASGRTFSSYGMGWFRQAPGKEREFVAAISRDARITDYADSVKGRFTISRDNAKNTAYLEMNSLNPEDTAVYSCAAAYTYSGSHYVTARSSDYHSWGQGTQVTVSS |
| 0.951 ratio | 8.98 ratio | anti-IL-12Rβ2 VHH clone 20548 (VHH, not shown: small tags and cut ends, tested as periplasmic extract; also called 3CAMS50) VHH: QVQLQESGGGLVQAGGSLRLSCADSGRTFSSYGMGWFRQAPGKEREFVAAISRGARITDYADSVKGRFTISRDNAKNTAYLQMNSLNPEDTAVYFCAAAYTYSGSHYVTARSSDYHSWGQGTQVTVSS |
| 1.02 ratio | 5.12 ratio | anti-IL-12Rβ2 VHH clone 20547 (VHH, not shown: small tags and cut ends, tested as periplasmic extract; also called 3CAMS47) VHH: QVQLQESGGGLVQAGGSLRLSCAASGRTFSSYGMGWFRQAPGKERDFVAAISRGARNADYADSVKGRFTISRDNAKNTAYLQMNSLNPEDTAVYFCAAAYTYSGSHYVTARSSDYAYWGQGTQVTVSS |
| 0.834 ratio | 8.57 ratio | anti-IL-12Rβ2 VHH clone 20540 (VHH, not shown: small tags and cut ends, tested as periplasmic extract; also called 3CAMS5) VHH: QVQLQESGGGLVQAGDSLRISCAASGRTFSSYGMGWFRQAPGKERDFVAAISRDARYTDYADSVKGRFTISKDNAKNTAYLQMNSLNPEDTAVYFCAAAYTYSGSHYVTARSGDYNYWGQGTQVTVSS |
